# B1: PEGylated (PEG) interferon: recombinant human interferon α1b modified with a single PEG of about 20,000 Daltons; lyophilized powder injection, Shanghai Institute of Biological Products (protein, UniProt P01562 24-189, looked up)
# Interferon alpha-1/13: CDLPETHSLDNRRTLMLLAQMSRISPSSCLMDRHDFGFPQEEFDGNQFQKAPAISVLHELIQQIFNLFTTKDSSAAWDEDLLDKFCTELYQQLNDLEACVMQEERVGETPLMNADSILAVKKYFRRITLYLTEKKYSPCAWEVVRAEIMRSLSLSTNLQERLRRKE
# modifications: single 20 kDa PEG
# notes: recombinant human interferon α1b modified with a single PEG of about 20,000 Daltons; lyophilized powder injection, Shanghai Institute of Biological Products
# What was measured:
# [1] = system: human gastric cancer NCI-N87; assay: subcutaneous transplanted tumors of human gastric cancer NCI-N87 in nude mice; format: in vivo; conditions: D 0, 3, 7, 10, 14, 17; for Mean tumor volume D 0 SEM: baseline at grouping
# Method: (§1) The indicators of tumor inhibition experiments in mice were to investigate the effect of drugs on tumor growth, and the specific indicators were T/C % or the rate of tumor growth inhibition TGI (%).
# (§2) The diameter of the tumor was measured with a vernier caliper twice a week, and the formula for calculating the tumor volume (V) was: V=½xaxb^2, wherein a and b represented the length and width, respectively.
# (§3) T/C(%)=(T−T0)/(C−C0)×100,
# (§4) If a tumor was smaller than the initial volume, i.e., T<T0 or C<C0, it was defined as partial regression (PR) of the tumor; if a tumor disappeared completely, it was defined as complete regression (CR) of the tumor.
# (§5) At the end of the experiment (e.g., D21), reaching the experimental endpoint, or the tumor volume reached 1,500 mm^3, the animals were sacrificed after CO2 anesthesia, and then the tumors were dissected and photographed.
# Nude mice were subcutaneously (SC) inoculated with 6×10^6 human gastric cancer NCI-N87 cells. After the tumor grew to 100-150 mm^3, the animals were grouped according to tumor volume (D0). Mice were administered subcutaneously (SC) or intravenously (IV), twice a week (BIW); the administration volume was 10 mL/kg; the solvent group was administered with the same volume of “solvent” (normal saline); specific dosage and administration regimen were shown in Table 1. The tumor volumes were measured twice a week, the mice were weighed, and the data were recorded.
# (§6) Two-tailed Student's t-test was used to compare tumor volumes between the two groups, and P<0.05 was defined as a statistically significant difference.
# human liver cancer Huh-7 = assay: subcutaneous transplanted tumors of human liver cancer Huh-7 in nude mice; format: in vivo; conditions: for % T/C D 17 / Mean tumor volume D 17 SEM / Tumor inhibition rate % D 17 / Mean tumor volume D 0 SEM: D 0, 3, 7, 10, 14; for Mean tumor volume D 0 SEM: baseline at grouping
# Method: as §1, §2, §3, §4, §5
# Nude mice were subcutaneously inoculated with 6×10^6 human liver cancer Huh-7 cells. After the tumor grew to 100-150 mm^3, the animals were grouped according to tumor volume (D0). Mice were administered subcutaneously (SC) or intravenously (IV), twice a week (BIW); the administration volume was 10 mL/kg; the solvent group was administered with the same volume of “solvent” (normal saline); specific dosage and administration regimen were shown in Table 2. The tumor volumes were measured twice a week, the mice were weighed, and the data were recorded.
# as §6
# [2] = system: human breast cancer BT-474; assay: subcutaneous transplanted tumors of human breast cancer BT-474 in nude mice; format: in vivo; conditions: for % T/C D 20 / Mean tumor volume D 20 SEM / Tumor inhibition rate % D 20 / Mean tumor volume D 0 SEM: D 0, 3, 7, 10, 14, 17; for Mean tumor volume D 0 SEM: baseline at grouping
# Method: as §1, §2, §3, §4, §5
# Nude mice were subcutaneously inoculated with 1×10^7 human breast cancer BT-474 cells. After the tumor grew to 100-150 mm^3, the animals were grouped according to tumor volume (D0). Mice were administered subcutaneously (SC) or intravenously (IV), twice a week (BIW); the administration volume was 10 mL/kg; the solvent group was administered with the same volume of “solvent” (normal saline); specific dosage and administration regimen were shown in Table 3. The tumor volumes were measured twice a week, the mice were weighed, and the data were recorded.
# as §6
# MCF-7 = assay: SRB method, proliferation of tumor cells in vitro, MCF-7; format: cell-based; conditions: MCF-7 (Breast cancer), 120 hours of drug action
# Method: (§7) Sulfonyl rhodamine B protein staining method (SRB method) was used to evaluate the effects of using PEG-interferon alone or in combination with other drugs on the proliferation of tumor cells in vitro.
# (§8) A certain number of cells in logarithmic growth phase were seeded in 96-well culture plates. After 24 hours of adherent growth, different concentrations (final concentrations of 1, 3, 10, 30, 100, 300, 1,000, 3,000, 10,000 nM) of drugs were added. After 120 hours of drug action, cells were fixed with trichloroacetic acid. Then stained with SRB solution; finally, Tris solution was added to dissolve SRB, and OD value was measured at a wavelength of 510 nm by a microplate reader.
# BT474 = assay: SRB method, proliferation of tumor cells in vitro, BT474; format: cell-based, human; conditions: BT474 (Breast cancer), 120 hours of drug action
# Method: as §7, §8
# Breast cancer cells BT474 were used, and the corresponding inhibition rate (%) was calculated.
# HCC1806 = assay: SRB method, proliferation of tumor cells in vitro, HCC1806; format: cell-based; conditions: HCC1806 (Breast cancer), 120 hours of drug action
# Method: as §7, §8
# NCI-H292 = assay: SRB method, proliferation of tumor cells in vitro, NCI-H292; format: cell-based; conditions: NCI-H292 (Lung cancer), 120 hours of drug action
# Method: as §7, §8
# A549 = assay: SRB method, proliferation of tumor cells in vitro, A549; format: cell-based; conditions: A549 (Lung cancer), 120 hours of drug action
# Method: as §7, §8
# HGC27 = assay: SRB method, proliferation of tumor cells in vitro, HGC27; format: cell-based; conditions: HGC27 (Gastric cancer), 120 hours of drug action
# Method: as §7, §8
# AGS = assay: SRB method, proliferation of tumor cells in vitro, AGS; format: cell-based; conditions: AGS (Gastric cancer), 120 hours of drug action
# Method: as §7, §8
# N87 = assay: SRB method, proliferation of tumor cells in vitro, N87; format: cell-based, human; conditions: N87 (Gastric cancer), 120 hours of drug action
# Method: as §7, §8
# HepG2 = assay: SRB method, proliferation of tumor cells in vitro, HepG2; format: cell-based; conditions: HepG2 (Liver cancer), 120 hours of drug action
# Method: as §7, §8
# Hep3B = assay: SRB method, proliferation of tumor cells in vitro, Hep3B; format: cell-based; conditions: Hep3B (Liver cancer), 120 hours of drug action
# Method: as §7, §8
# Huh-7 = assay: SRB method, proliferation of tumor cells in vitro, Huh-7; format: cell-based, human; conditions: Huh-7 (Liver cancer), 120 hours of drug action
# Method: as §7, §8
# half-life in rats = format: in vivo
# [3] = half-life in cynomolgus monkeys; format: in vivo
# [4] = PEGylated (PEG) interferon 0.1 mg/kg SC
# [5] = PEGylated (PEG) interferon 1 mg/kg SC
# [6] = PEGylated (PEG) interferon 10 mg/kg SC
# [7] = PEGylated (PEG) interferon 10 mg/kg SC, 2 times a week, 6 times in total, D20
molecule,measurement,setting,value
B1,% T/C D 21,[1]; [4],81%
same,Mean tumor volume D 21 SEM,[1]; [4],817.1 ± 84.9 mm^3
same,Tumor inhibition rate % D 21,[1]; [4],19%
same,Mean tumor volume D 0 SEM,[1]; [4],112.7 ± 3.9 mm^3
same,% T/C D 21,[1]; [5],68%
same,Mean tumor volume D 21 SEM,[1]; [5],712.4 ± 68.4 mm^3
same,Tumor inhibition rate % D 21,[1]; [5],32%
same,Mean tumor volume D 0 SEM,[1]; [5],117.4 ± 2.8 mm^3
same,% T/C D 21,[1]; [6],45%
same,Mean tumor volume D 21 SEM,[1]; [6],506.1 ± 33.0 mm^3
same,Tumor inhibition rate % D 21,[1]; [6],55%
same,Mean tumor volume D 0 SEM,[1]; [6],112.3 ± 2.3 mm^3
same,% T/C D 17,human liver cancer Huh-7; [4],110%
same,Mean tumor volume D 17 SEM,human liver cancer Huh-7; [4],3188.0 ± 282.5 mm^3
same,Tumor inhibition rate % D 17,human liver cancer Huh-7; [4],−10%
same,Mean tumor volume D 0 SEM,human liver cancer Huh-7; [4],117.7 ± 2.0 mm^3
same,% T/C D 17,human liver cancer Huh-7; [5],107%
same,Mean tumor volume D 17 SEM,human liver cancer Huh-7; [5],3110.6 ± 438.0 mm^3
same,Tumor inhibition rate % D 17,human liver cancer Huh-7; [5],−7%
same,Mean tumor volume D 0 SEM,human liver cancer Huh-7; [5],119.8 ± 2.6 mm^3
same,% T/C D 17,human liver cancer Huh-7; [6],91%
same,Mean tumor volume D 17 SEM,human liver cancer Huh-7; [6],2681.9 ± 435.7 mm^3
same,Tumor inhibition rate % D 17,human liver cancer Huh-7; [6],9%
same,Mean tumor volume D 0 SEM,human liver cancer Huh-7; [6],123.8 ± 1.9 mm^3
same,inhibitory effect on the growth of subcutaneous transplanted tumors,"human liver cancer Huh-7; PEGylated (PEG) interferon 0.1, 1, 10 mg/kg, SC, 2 times a week, 5 times in total",no significant inhibitory effect
same,% T/C D 20,[2]; [4],34%
same,Mean tumor volume D 20 SEM,[2]; [4],422.2 ± 97.0 mm^3
same,Tumor inhibition rate % D 20,[2]; [4],66%
same,Mean tumor volume D 0 SEM,[2]; [4],91.2 ± 1.3 mm^3
same,tumors regressed partially (PR),"[2]; PEGylated (PEG) interferon 1 mg/kg SC, 2 times a week, 6 times in total, D20",3/6
same,% T/C D 20,[2]; [5],2%
same,Mean tumor volume D 20 SEM,[2]; [5],115.7 ± 26.1 mm^3
same,Tumor inhibition rate % D 20,[2]; [5],98%
same,Mean tumor volume D 0 SEM,[2]; [5],94.1 ± 4.3 mm^3
same,tumors regressed completely (CR),[2]; [7],2/6
same,tumors regressed partially (PR),[2]; [7],4/6
same,tumors regressed partially (PR),"[2]; PEGylated (PEG) interferon 10 mg/kg SC, 6 times in total, end of the experiment (D60)",4/6
same,% T/C D 20,[2]; [6],−56%
same,Mean tumor volume D 20 SEM,[2]; [6],41.4 ± 15.7 mm^3
same,Tumor inhibition rate % D 20,[2]; [6],156%
same,Mean tumor volume D 0 SEM,[2]; [6],94.8 ± 4.2 mm^3
same,Inhibition rate (%)@100 μg/mL,MCF-7,24.2%
same,Inhibition rate (%)@100 μg/mL,BT474,19.6%
same,Inhibition rate (%)@100 μg/mL,HCC1806,32.6%
same,Inhibition rate (%)@100 μg/mL,NCI-H292,41.5%
same,Inhibition rate (%)@100 μg/mL,A549,33.7%
same,Inhibition rate (%)@100 μg/mL,HGC27,52.3%
same,Inhibition rate (%)@100 μg/mL,AGS,44.0%
same,Inhibition rate (%)@100 μg/mL,N87,32.5%
same,Inhibition rate (%)@100 μg/mL,HepG2,20.2%
same,Inhibition rate (%)@100 μg/mL,Hep3B,58.4%
same,Inhibition rate (%)@100 μg/mL,Huh-7,29.3%
same,half-life,half-life in rats,13.98 h
same,half-life,[3],22.03 ± 3.32 h

# Reference: patent US20220370565A1 (SHANGHAI INSTITUTE OF BIOLOGICAL PRODCCTS CO., LTD., priority 2019, published 2022)
